We go through two molecules from US20220048982A1 (Eli Lilly, published 2022).

The target in assay [1] is T1, mIgG1-hAsyn100-140 (mouse; human, UniProt P37840 100-140).
T1 construct: C-terminal fragment of human α-synuclein fused onto the C-terminal end of a mouse Fc; also called dimeric human alpha-synuclein; dimeric α-synuclein; not shown: mouse IgG1 Fc fragment; short unstructured linker element
In words: MSD-SET solution equilibrium at 25 C.

For assay [2], the target named is T1, mIgG1-hAsyn100-140. The assay can be described thus: ratio of Kinexa KD for monomeric human α-synuclein to MSD-SET KD for dimeric α-synuclein, 37 C.
Description: During this time, sepharose beads are conjugated with monomeric human alpha-synuclein and blocked with a suitable non-specific binding protein (typically BSA or casein). Once steady state is achieved, a small capillary is packed with coated beads and samples of each fixed antibody/alpha-synuclein monomer are injected over the column. […] This step is repeated for each concentration of alpha-synuclein monomer and resultant fluorescent signal (proportional to percent free antibody) and then plotted as a function of fluorescent signal versus monomeric α-synuclein concentration and globally fit to a 1:1 binding model to obtain KD. Independent runs (n=3) run with technical duplicates (95% confidence intervals) are reported.
During this incubation time, an MSD Sector plate is coated with monomeric human alpha-synuclein and blocked with a blocking reagent (i.e. BSA, casein). Following steady state equilibrium incubation times, individual antibody/mIgG1-hAsyn 100-140 mixtures are added simultaneously to the plate and allowed to incubate for 10 minutes to capture free antibody and minimize exchange with antibody in complex with mIgG1-hAsyn100-140. Following this short incubation, plates are subsequently washed and incubated with a biotinylated anti-human secondary antibody, followed by detection using streptavidin-S-tag on the MSD instrument. […]
Assay [3] concerns the target T2, recombinant human α-synuclein fibril (human, UniProt P37840 1-140). In words: ELISA, plate coated with fibril at 1 µg/ml. On the technique in general: ELISA stands for enzyme-linked immunosorbent assay.
Description: An Enzyme-Linked Immunosorbent Assay (ELISA) is performed for quantitative determination of antibody affinity to recombinant human α-synuclein fibril.
(§1) An ELISA plate is coated with recombinant human α-synuclein fibril at 1 μg/ml in PBS overnight at 4° C. The next day, the plate is incubated with 1% casein for 1 hour at room temperature to block non-specific binding sites on the plate. […] After incubation, the plate is washed three times with 0.1% PBST to remove un-bound antibody and incubated with a detection agent (1:1000 diluted goat-anti-human Kappa-AP) in 0.1% PBST for 1 hour at room temperature. The plate is washed three times with 0.1% PBST to remove un-bound detection agent and incubated with a substrate for 15 minutes at room temperature. The OD is then read in an ELISA plate reader at 560 nm. The binding curve is obtained based on the antibody concentration and OD560 readout.
In assay [4] the target is T2, recombinant human α-synuclein fibril. The assay can be described thus: cell-based or functional assay.
Assay [5] concerns the target truncated human α-synuclein fragment 1-120 (human, UniProt P37840 1-120). In words: ELISA on plate-coated truncated human alpha-synuclein fragment 1-120, detection with goat anti-human kappa-AP, OD560.
Description: as §1
(§2) Binding full-length (1-140) α-synuclein is also determined. The procedure is essentially as described above for α-synuclein fibril binding.
Assay [6] has as its target monomeric human alpha-synuclein fragment 1-121 (human, UniProt P37840 1-121). In words: Kinexa at 37 C, solution equilibrium.
Description: (§3) These samples are incubated for 24 to 48 hours at 37 C to allow for steady state equilibrium to be achieved. During this time, sepharose beads are conjugated with monomeric human alpha-synuclein and blocked with a suitable non-specific binding protein (typically BSA or casein). Once steady state is achieved, a small capillary is packed with coated beads and samples of each fixed antibody/alpha-synuclein monomer are injected over the column. […] This step is repeated for each concentration of alpha-synuclein monomer and resultant fluorescent signal (proportional to percent free antibody) and then plotted as a function of fluorescent signal versus monomeric α-synuclein concentration and globally fit to a 1:1 binding model to obtain KD. Independent runs (n=3) run with technical duplicates (95% confidence intervals) are reported.
For assay [7], the target named is monomeric human alpha-synuclein fragment 1-115 (human, UniProt P37840 1-115). The assay can be described thus: Kinexa at 37 C, solution equilibrium.
Description: as §3
Assay [8] concerns the target T3, monomeric human α-synuclein (human, UniProt P37840 1-140). In words: Kinexa at 37 C, solution equilibrium.
Description: as §3
Assay [9] deals with T1, mIgG1-hAsyn100-140. In words: MSD-SET solution equilibrium at 37 C.
Description: During this incubation time, an MSD Sector plate is coated with monomeric human alpha-synuclein and blocked with a blocking reagent (i.e. BSA, casein). Following steady state equilibrium incubation times, individual antibody/mIgG1-hAsyn 100-140 mixtures are added simultaneously to the plate and allowed to incubate for 10 minutes to capture free antibody and minimize exchange with antibody in complex with mIgG1-hAsyn100-140. Following this short incubation, plates are subsequently washed and incubated with a biotinylated anti-human secondary antibody, followed by detection using streptavidin-S-tag on the MSD instrument. The resultant MSD signal (proportional to % free antibody) is then plotted as a function of mIgG1-hAsyn100-140 concentration and globally fit to a four parameter fit to obtain IC₅₀ (KD). Reported 95% confidence intervals represent the fitting of N=3 independent runs each with technical duplicates. The avidity-factor is the ratiometric difference between monomer affinity and dimer affinity and represents the selectivity in binding between monomeric and dimeric α-synuclein for antibody.
In assay [10] the target is T4, biotinylated human α-synuclein peptide 120-140 (human, biotinylated (site not stated)).
T4 construct: also called α-synuclein fragment 120-140
T4 peptide: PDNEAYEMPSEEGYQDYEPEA
The assay can be described thus: ELISA on biotinylated human alpha-synuclein peptide 120-140, detection with goat anti-human kappa-AP, OD560.

For assay [11], the target named is pHAb-dye labelled human α-synuclein fibrils (1-140) (human, UniProt P37840 1-140). In words: cell-based or functional assay.
Assay [12] deals with T3, monomeric human α-synuclein. In words: ELISA on plate-coated full-length (1-140) human alpha-synuclein, detection with goat anti-human kappa-AP, OD560.
Description: as §1, §2
The target in assay [13] is monomeric rat alpha-synuclein (rat, UniProt P37377 1-140). The assay can be described thus: Kinexa at 37 C, solution equilibrium.
Description: as §3
For assay [14], the target named is T3, monomeric human α-synuclein. In words: Kinexa at 37 C, solution equilibrium. This is another data set of the same source.
Description: as §3
Assay [15] has as its target monomeric mouse alpha-synuclein (mouse, UniProt O55042 1-140). In words: Kinexa at 37 C, solution equilibrium.
Description: as §3
For assay [16], the target named is monomeric rabbit alpha-synuclein (rabbit). The assay can be described thus: Kinexa at 37 C, solution equilibrium.
Description: as §3

Like-named read-outs stand apart in the source and are kept apart here.

B1: Antibody 1 (antibody, human IgG4 S228P, kappa, F234A L235A, V domains shown)
VH: EVQLLESGGGLVQPGGSLRLSCAASGFTFSSYAMSWVRQAPGKGLEWVSAISGSGGDTYYADSVKGRFTISRDNSKNTLYLQMNSLRAEDTAVYYCARGYGMDVWGQGTTVTVSS
VL: DVVMTQSPLSLPVTLGQPASISCRSSQSLVHSDGNTYLMWFQQRPGQSPRRLIYKVSNRNSGVPDRFSGSGSGTDFTLKISRVEAEDVGVYYCMQGTKQYPTFGQGTKLEIKR
modifications: about 1% of the N-terminal glutamic acid may be converted to pyroglutamic acid; less than about 1% of the C-terminal glycine may be clipped
notes: IgG4PAA, kappa
For B1, the Kd in [1] amounted to 0.00012 nM; in [6], 11.8 nM; in [7], 675 nM; in [8], 19 nM; in [9] it was 0.00097 nM; in assay [13] it was 89 nM. Also, the results for the Kd in assay [14], in [15] and in assay [16] were 19 nM, 49.7 nM and 554 nM, respectively. Moreover, in assay [2], the “avidity factor (monomer KD against dimer KD)” value was approximately 20000 fold. Moreover, in assay [3], the EC50 is 0.000193 mg/L. Also, in [4], the “Average IC50, inhibition of alpha-synuclein aggregation in SHSY-5Y-A53T-myc cells” value worked out at 0.41 mg/L. For the same molecule, the figures for the “EC50 (read off the curve)” value in assay [5], in assay [10] and in assay [12] were approximately 0.7 nM, approximately 0.9 nM and approximately 1 nM, respectively. In addition, in [11], the “Average IC50, inhibition of fibril internalization into SH-SY5Y cells” value came to 0.45 mg/L. Moreover, in [11], the “IC50 Standard Deviation, inhibition of fibril internalization into SH-SY5Y cells” value was found to be 0.017 mg/L.

B2: Antibody 2 (antibody, human IgG4 S228P, kappa, F234A L235A, V domains shown)
VH: EVQLLESGGGLVQPGGSLRLSCAASGFTFSSYAMSWVRQAPGKGLEWVSAISGSGGDTYYADSVQGRFTISRDNSKNTLYLQMNSLRAEDTAVYYCARGYGMDVWGQGTTVTVSS
VL: DVVMTQSPLSLPVTLGQPASISCRSSQDLVHSDGNTYLMWFQQRPGQSPRRLIYKVSDRNSGVPDRFSGSGSGTDFTLKISRVEAEDVGVYYCMQGTKQYPTFGQGTKLEIKR
modifications: about 1% of the N-terminal glutamic acid may be converted to pyroglutamic acid; less than about 1% of the C-terminal glycine may be clipped
notes: IgG4PAA, kappa
As to B2, the equilibrium dissociation constant (Kd) in [1] turned out to be 0.0032 nM; in assay [13], 140 nM; in assay [14] it was 65.6 nM; in [15], 99.3 nM; in [16], 1020 nM. Further, the EC50 in assay [3] came to 0.000161 mg/L. Besides, the “Average IC50, inhibition of alpha-synuclein aggregation in SHSY-5Y-A53T-myc cells” value in assay [4] amounted to 0.4 mg/L. Further, the “EC50 (read off the curve)” value in [5] was approximately 0.6 nM; in [10], approximately 5 nM; in assay [12], approximately 0.8 nM. The “Average IC50, inhibition of fibril internalization into SH-SY5Y cells” value in [11] is 0.56 mg/L. The “IC50 Standard Deviation, inhibition of fibril internalization into SH-SY5Y cells” value in [11] amounted to 0.026 mg/L.

By Kd is commonly meant the concentration at which binding is half-saturated. Broadly, the EC50 is the concentration that produces a half-maximal response. As usually defined, the EC50 (read off the curve) is the concentration needed to bring the measured effect to its halfway point. A higher EC50 (read off the curve) goes with a less potent agent.
